# Article PMC13408441, “Molecular regulation and physiological role of GOLPH3-mediated Golgi retention” (Nature Communications, 2026)
# Entries after “also recorded” stand apart in the source; their conditions may differ.
# What was measured:
# [1] = test system: LCS; test: ITC of GOLPH3 mutants with LCS peptide; assay type: binding; conditions: 25 °C, pH 8.0, relative to non-mutated GOLPH3
# Method: (§1) Supplemental Material for Theodoropoulou, Nasrallah, et al 2026
# (§2) Isothermal titration calorimetry
# (§3) Isothermal titration calorimetry (ITC) experiments were performed on a MicroCal PEAQ-ITC (Malvern Panalytical), with GOLPH3 variants being in a buffer containing 250 mM NaCl, 50 mM Tris pH 8.0 and 1 mM TCEP. LCS peptides were synthesised and delivered as lyophilised powder (Genscript). The peptides were dissolved in the protein buffer and their concentrations were calculated based upon their absorbance at 280 nm and their corresponding molar extinction coefficient. Experiments consisted of titrations of a single 0.4 µL injection followed […]
# (§4) GOLPH3 proteins at a 100 μM concentration. Experiments were performed at 25 °C in triplicate (n = 3), with injection duration of 4 s, injection spacing of 150 s, stir speed of 750 rpm, and reference power of 7 μcal/s. Data were processed and plotted using MicroCal PEAQ‐ITC Analysis Software and fitted to a one‐site binding model.
# (§5) Circular Dichroism Spectroscopy
# (§6) Circular Dichroism Spectra of GOLPH3 proteins (at 10 μM in 100 mM NaCl, 50 mM Tris pH 7.4 and 1 mM TCEP) were collected with a Chirascan V100 (AppliedPhotophysics), using a 1 mm path length cuvette, at 20 °C, in the 200-260 nm range. Thermal denaturation experiments […]
# (§7) every 1 °C, with a temperature ramp speed of 1 °C/min and an equilibration time of […]
# (§8) Table S2: Fits of CD spectra to fractions of secondary structure for Golph3 WT and various mutants of it, carried out with the BestSel server
# [2] = CD secondary structure of GOLPH3 proteins (BestSel fits); assay type: physicochemical, human; conditions: 10 μM, 100 mM NaCl, 50 mM Tris pH 7.4, 1 mM TCEP, 20 °C
# Method: as §1
# Isothermal titration calorimetry […]
# as §5, §6, §7, §8
# [3] = CD thermal denaturation of GOLPH3 proteins; assay type: physicochemical, human; conditions: CD at 207 nm, 20 to 95 °C at 1 °C/min, 10 μM protein, 100 mM NaCl, 50 mM Tris pH 7.4, 1 mM TCEP
# Method: as §1, §2, §3, §4, §5, §6, §7, §8
# [4] = test system: HeLa cells; test: Immunofluorescence of GOLPH3 Golgi localization; assay type: cell-based, human; conditions: quantitative immunofluorescence
# Method: as §1
# (Sigma, E4382), 5 mL of 1% Phloxine B (Fluka, 28550), 360 mL of 95% ethanol, and 2 mL of glacial acetic acid. Slides were then washed in distilled water, dehydrated, cleared in xylene, and mounted using Eukitt mounting medium (Sigma-Aldrich).
# For Alcian Blue staining, sections were deparaffinized, rehydrated, and incubated for 25 minutes at room temperature in 1% Alcian Blue (Sigma-Aldrich, A5268) dissolved in 3% acetic acid (pH 2.5). The solution was filtered prior to use and prepared by dissolving 5 g of Alcian Blue in 500 mL of 3% glacial acetic acid. After staining, slides were washed in running tap water for 5 minutes and briefly rinsed in distilled water. Nuclei were counterstained with 0.1% nuclear fast red (Vector Laboratories, H-3403) for 5 minutes, followed by rinsing, dehydration, clearing, and mounting with Eukitt. Acidic mucopolysaccharides and mucins […]
# Immunofluorescence and confocal microscopy
# HeLa GOLPH3-KO cells transfected with the different GOLPH3 constructs were plated at approximately 50% confluency post-transfection. Cells were washed with PBS, fixed in 4% paraformaldehyde (PFA) for 20 minutes, washed with PBS, quenched with 50 mM NH4Cl for 10 minutes, and washed again with PBS. Cells were permeabilized with 0.05% saponin in PBS for 5 minutes. Subsequently, cells were washed and blocked with 3% BSA and 0.05% saponin in PBS for 30 minutes. Primary antibodies (anti-GOLPH3 and anti-GM130) and secondary antibodies were diluted in the same buffer. After blocking, coverslips were washed and incubated with primary antibodies overnight at 4 °C, washed in PBS, and incubated for 45 minutes with secondary antibodies. Cells were then washed and stained with Hoechst for nuclear visualization. Finally, coverslips were mounted in Prolong Glass Antifade Mountant.
# Images were acquired using a Zeiss LSM 980 Inverted microscope with a 63X objective, a pinhole size of 1 AU and at least 2 line-averaging or alternatively using Oympus Evident FV4000. Super-resolution images were taken using Zeiss LSM980 with Airyscan2 module, with 63×oil-immersion objectives. Images were processed using Fiji (ImageJ). Cis-to-trans Golgi linescans were recorded using the “Color Profiler” plugin (Color_Profiler. jar, https://imagej.nih.gov/ij/plugins/color -profiler.html) in Fiji software.
# Forty-eight hours after transfection, cells were harvested by trypsinization, fixed 10 minutes in 4% PFA/PBS, washed, and resuspended in PBS containing 1% BSA.
# [5] = test system: GOLPH3-KO HeLa cells; test: Targeted LC-MS/MS of glycosphingolipids in GOLPH3-KO HeLa expressing GOLPH3 mutants; assay type: cell-based, human
# [6] = test system: GOLPH3-KO HeLa cells; test: 3H-palmitate metabolic labeling of GOLPH3 mutants; assay type: cell-based, human; conditions: 3H-palmitic acid 3 h, autoradiography after immunoprecipitation
# Method: To detect palmitoylation, HeLa WT or GOLPH3-KO cells were transfected or not with different GOLPH3 constructs, incubated for 3 h in IM (Glasgow minimal essential medium buffered with 10 mM Hepes, pH 7.4) with 200 mCi/ml ^3H palmitic acid (9,10-^3H(N)) (American Radiolabeled Chemicals, Inc.). The cells were washed and directly lysed for immunoprecipitation with the anti-GOLPH3 rabbit antibody. […] After SDS-PAGE, the gel was incubated in a fixative solution (25% isopropanol, 65% H2O, 10% acetic acid), followed by a 30-min incubation with signal enhancer Amplify NAMP100 (GE Healthcare). […] Quantification of radioactive experiments was quantified using specific screens by autoradiography. The images shown for ^3H-palmitate labeling were however obtained using fluorography (indirect detection of radioactive emission by stimulated light emission from a fluorophore (Amplify) on film).
binding of GOLPH3 mutants to LCS [1],Molecule,% alpha [2],% beta parallel [2],% beta-antiparallel [2],% others [2],% turn [2],Tm / melting temperature [3],Golgi localization of GOLPH3 mutants [4],promotion of lipid glycosylation [5],palmitoylation of GOLPH3 mutants [6]
reduced binding,"D247A: GOLPH3 mutant D247A; recombinant in biophysics, transfected construct in cells (protein, UniProt Q9H4A6 1-298, looked up, variant D247A) Golgi phosphoprotein 3: MTSLTQRSSGLVQRRTEASRNAADKERAAGGGAGSSEDDAQSRRDEQDDDDKGDSKETRLTLMEEVLLLGLKDREGYTSFWNDCISSGLRGCMLIELALRGRLQLEACGMRRKSLLTRKVICKSDAPTGDVLLDEALKHVKETQPPETVQNWIELLSGETWNPLKLHYQLRNVRERLAKNLVEKGVLTTEKQNFLLFDMTTHPLTNNNIKQRLIKKVQEAVLDKWVNDPHRMDRRLLALIYLAHASAVLENAFAPLLDEQYDLATKRVRQLLDLDPEVECLKANTNEVLWAVVAAFTK",36%,0%,8%,44%,12%,–,–,–,–
–,"D247A/D258A/D262A: GOLPH3 triple mutant D247A/D258A/D262A; recombinant in biophysics, transfected in cells (protein, UniProt Q9H4A6 1-298, looked up, variant D247A D258A D262A) Golgi phosphoprotein 3: MTSLTQRSSGLVQRRTEASRNAADKERAAGGGAGSSEDDAQSRRDEQDDDDKGDSKETRLTLMEEVLLLGLKDREGYTSFWNDCISSGLRGCMLIELALRGRLQLEACGMRRKSLLTRKVICKSDAPTGDVLLDEALKHVKETQPPETVQNWIELLSGETWNPLKLHYQLRNVRERLAKNLVEKGVLTTEKQNFLLFDMTTHPLTNNNIKQRLIKKVQEAVLDKWVNDPHRMDRRLLALIYLAHASAVLENAFAPLLAEQYALATKRVRQLLDLDPEVECLKANTNEVLWAVVAAFTK",40%,0%,0%,47%,13%,–,–,–,–
–,"R90L: GOLPH3 mutant defective in PtdIns(4)P binding (protein, UniProt Q9H4A6 1-298, looked up, variant R90L) Golgi phosphoprotein 3: MTSLTQRSSGLVQRRTEASRNAADKERAAGGGAGSSEDDAQSRRDEQDDDDKGDSKETRLTLMEEVLLLGLKDREGYTSFWNDCISSGLLGCMLIELALRGRLQLEACGMRRKSLLTRKVICKSDAPTGDVLLDEALKHVKETQPPETVQNWIELLSGETWNPLKLHYQLRNVRERLAKNLVEKGVLTTEKQNFLLFDMTTHPLTNNNIKQRLIKKVQEAVLDKWVNDPHRMDRRLLALIYLAHASDVLENAFAPLLDEQYDLATKRVRQLLDLDPEVECLKANTNEVLWAVVAAFTK",–,–,–,–,–,–,largely abolished Golgi localization,–,–
–,"GOLPH3-C108A/C122A: GOLPH3 double S-acylation mutant C108A/C122A, transfected construct (protein, UniProt Q9H4A6 1-298, looked up, variant C108A C122A) Golgi phosphoprotein 3: MTSLTQRSSGLVQRRTEASRNAADKERAAGGGAGSSEDDAQSRRDEQDDDDKGDSKETRLTLMEEVLLLGLKDREGYTSFWNDCISSGLRGCMLIELALRGRLQLEAAGMRRKSLLTRKVIAKSDAPTGDVLLDEALKHVKETQPPETVQNWIELLSGETWNPLKLHYQLRNVRERLAKNLVEKGVLTTEKQNFLLFDMTTHPLTNNNIKQRLIKKVQEAVLDKWVNDPHRMDRRLLALIYLAHASDVLENAFAPLLDEQYDLATKRVRQLLDLDPEVECLKANTNEVLWAVVAAFTK",–,–,–,–,–,–,–,displays active behavior,–
–,"C122A: GOLPH3 S-acylation mutant C122A, transfected construct (protein, UniProt Q9H4A6 1-298, looked up, variant C122A) Golgi phosphoprotein 3: MTSLTQRSSGLVQRRTEASRNAADKERAAGGGAGSSEDDAQSRRDEQDDDDKGDSKETRLTLMEEVLLLGLKDREGYTSFWNDCISSGLRGCMLIELALRGRLQLEACGMRRKSLLTRKVIAKSDAPTGDVLLDEALKHVKETQPPETVQNWIELLSGETWNPLKLHYQLRNVRERLAKNLVEKGVLTTEKQNFLLFDMTTHPLTNNNIKQRLIKKVQEAVLDKWVNDPHRMDRRLLALIYLAHASDVLENAFAPLLDEQYDLATKRVRQLLDLDPEVECLKANTNEVLWAVVAAFTK",–,–,–,–,–,–,increased Golgi localization,–,modest effect
–,"C108A: GOLPH3 S-acylation mutant C108A, transfected construct (protein, UniProt Q9H4A6 1-298, looked up, variant C108A) Golgi phosphoprotein 3: MTSLTQRSSGLVQRRTEASRNAADKERAAGGGAGSSEDDAQSRRDEQDDDDKGDSKETRLTLMEEVLLLGLKDREGYTSFWNDCISSGLRGCMLIELALRGRLQLEAAGMRRKSLLTRKVICKSDAPTGDVLLDEALKHVKETQPPETVQNWIELLSGETWNPLKLHYQLRNVRERLAKNLVEKGVLTTEKQNFLLFDMTTHPLTNNNIKQRLIKKVQEAVLDKWVNDPHRMDRRLLALIYLAHASDVLENAFAPLLDEQYDLATKRVRQLLDLDPEVECLKANTNEVLWAVVAAFTK",–,–,–,–,–,–,increased Golgi localization,–,modest effect
weaken or abrogate binding,"D247R/D258R/D262R: recombinant GOLPH3 triple mutant D247R/D258R/D262R (protein, UniProt Q9H4A6 1-298, looked up, variant D247R D258R D262R) Golgi phosphoprotein 3: MTSLTQRSSGLVQRRTEASRNAADKERAAGGGAGSSEDDAQSRRDEQDDDDKGDSKETRLTLMEEVLLLGLKDREGYTSFWNDCISSGLRGCMLIELALRGRLQLEACGMRRKSLLTRKVICKSDAPTGDVLLDEALKHVKETQPPETVQNWIELLSGETWNPLKLHYQLRNVRERLAKNLVEKGVLTTEKQNFLLFDMTTHPLTNNNIKQRLIKKVQEAVLDKWVNDPHRMDRRLLALIYLAHASRVLENAFAPLLREQYRLATKRVRQLLDLDPEVECLKANTNEVLWAVVAAFTK",38%,0%,7%,40%,15%,57 °C,–,–,–

Molecule,binding of GOLPH3 mutants to LCS [1],% alpha [2],% beta parallel [2],% beta-antiparallel [2],% others [2],% turn [2],Tm / melting temperature [3],Golgi localization of GOLPH3 mutants [4],promotion of lipid glycosylation [5],palmitoylation of GOLPH3 mutants [6]
"D247R: recombinant GOLPH3 mutant D247R (protein, UniProt Q9H4A6 1-298, looked up, variant D247R) Golgi phosphoprotein 3: MTSLTQRSSGLVQRRTEASRNAADKERAAGGGAGSSEDDAQSRRDEQDDDDKGDSKETRLTLMEEVLLLGLKDREGYTSFWNDCISSGLRGCMLIELALRGRLQLEACGMRRKSLLTRKVICKSDAPTGDVLLDEALKHVKETQPPETVQNWIELLSGETWNPLKLHYQLRNVRERLAKNLVEKGVLTTEKQNFLLFDMTTHPLTNNNIKQRLIKKVQEAVLDKWVNDPHRMDRRLLALIYLAHASRVLENAFAPLLDEQYDLATKRVRQLLDLDPEVECLKANTNEVLWAVVAAFTK",reduced binding; also recorded: weaken or abrogate binding,38%,0%,0%,52%,10%,57 °C,–,–,–
